Test results as given in patent US20240239886A1 (YEDA RESEARCH AND DEVELOPMENT, published 2024).
Like-named read-outs stand apart in the source and are kept apart here.

T1: soluble TREM2 protein (human, UniProt Q9NZC2 19-157)
T1 construct: also called TREM2 in cell culture supernatant (Sup)
T1 sequence: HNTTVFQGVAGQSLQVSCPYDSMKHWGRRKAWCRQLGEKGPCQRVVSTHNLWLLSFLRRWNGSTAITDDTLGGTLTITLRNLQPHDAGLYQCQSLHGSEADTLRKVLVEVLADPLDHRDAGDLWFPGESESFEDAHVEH

T2: recombinant protein consisting of the extracellular domain of human TREM2 fused to the His tag (human, UniProt Q9NZC2 19-174)
T2 construct: also called His tagged hTREM2; His-TREM2
T2 sequence: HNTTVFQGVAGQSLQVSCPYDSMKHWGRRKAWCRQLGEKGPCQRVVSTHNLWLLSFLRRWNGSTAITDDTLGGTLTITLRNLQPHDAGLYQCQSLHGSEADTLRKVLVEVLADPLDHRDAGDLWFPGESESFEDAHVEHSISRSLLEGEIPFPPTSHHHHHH

T3: human TREM2 (hTREM2) on cells (human, UniProt Q9NZC2 19-230)
T3 construct: also called hTREM2 expressing HEK293
T3 sequence: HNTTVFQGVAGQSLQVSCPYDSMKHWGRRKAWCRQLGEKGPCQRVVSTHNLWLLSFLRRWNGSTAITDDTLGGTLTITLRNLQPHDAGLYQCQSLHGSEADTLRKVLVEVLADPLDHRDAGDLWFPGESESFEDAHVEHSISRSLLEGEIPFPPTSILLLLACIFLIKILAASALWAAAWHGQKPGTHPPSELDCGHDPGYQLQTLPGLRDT


Key:
soluble TREM2 protein = molecular target: T1, soluble TREM2 protein; assay: sup ELISA, hTREM2 vs WT 293HEK supernatant
Experimental: Supernatant was collected, centrifuged for 5 min at 900 g and filtered (0.45 μm). Ninety six-well ELISA microplate was coated with 0.2 μg/well of anti human TREM2 Antibody (AF1828, R&D) diluted in PBS, and incubated at 4° C. overnight. The plate was rinsed three times with 0.05% tween20 in PBS, blocked with 1% BSA in PBS at room temperature (RT) for 1 hr, and rinsed again. The plates was incubated with the cell culture supernatant (100 μl/well) for 2 hrs at RT for and rinsed again. The plate was incubated with 0.1 μg biotinylayed anti hTREM2 antibodies for 2 hrs at RT. After incubation, the plate was rinsed and incubated with streptavidin-HRP (DY998, R&D) for 20 min at RT. The plate was rinsed and incubated with TMB Reagent (TM4500, Scytek) for 20 min at RT, followed by the addition of Stop Solution 2N Sulfuric Acid (DY994, R&D). OD was measured using an ELISA plate reader at dual wavelengths (450 nm and 570 nm)
(§1) A. Cells culture supernatant (Sup) was used for soluble TREM2 protein binding capability test of 18 hybridoma derived monoclonal antibodies by direct ELISA. B. Cells were captured in 96 wells plate and were used for cell based ELISA of 18 hybridoma derived monoclonal antibodies. OD values positive cells (hTREM2 expressing HEK293) and negative cells (WT HEK293) are showing in the table.

[1] = molecular target: T2, recombinant protein consisting of the …; assay: direct ELISA
Experimental: (§2) Ninety six-Well ELISA microplate was coated with 0.5 μg/mL, 100 μl/well His tagged hTREM2 diluted in PBS pH 7.4, and incubated at 4° C. overnight. The plate was rinsed three times with 0.05% tween20 in PBS, blocked with 1% BSA in PBS at room temperature (RT) for 1 hr, and rinsed again. The plates was incubated with the anti hTREM2 antibodies (100 μl/well) for 2 hrs at indicated concentration, at RT. Plate was rinsed and incubated with Peroxidase-AffiniPure Goat anti Mouse IgG, Fcg fragment specific (min X Hu, Bov, Hrs, Sr Prot; Jackson ImmunoResearch) for 20 min at RT. The plate was rinsed and incubated with TMB Reagent (TM4500, Scytek) for 20 min at RT, followed by the addition of Stop Solution 2N Sulfuric Acid (DY994, R&D). OD was measured using an ELISA plate reader at dual wavelengths (450 nm and 570 nm)

[2] = molecular target: T2, recombinant protein consisting of the …; assay: direct ELISA; highest dilution with S/B >= 2.1
Experimental: as §2
(§3) Purity is measured by SDS-PAGE. Quantity of endotoxin (EU/mg) is measured by LAL assay. Titer measured by direct ELISA, while the title value is the highest dilution with S/B (Signal/Blank) >= 2.1

[3] = molecular target: T2, recombinant protein consisting of the …; assay: direct ELISA, coated His-TREM2 0.5 ug/mL, Ab stock 1 mg/mL
Experimental: as §2

[4] = molecular target: T3, human TREM2 (hTREM2) on cells; assay: cell-based ELISA, hTREM2 vs WT 293HEK cells
Experimental: Cells were washed three times with PBS and blocked (5% FBS, 1% BSA in PBS) for 2 hrs at RT. Cells were washed with 1% BSA in PBS and were incubated with 0.1 ug (or indicated amount) obiotinylayed anti hTREM2 antibodies for 4 hrs at RT. After incubation, cells were incubated with streptavidin-HRP (DY998, R&D) for 20 min at RT. The cells were washed and incubated with TMB Reagent (TM4500, Scytek) for 30 min at RT, followed by the addition of Stop Solution 2N Sulfuric Acid (DY994, R&D). OD was measured using an ELISA plate reader at dual wavelengths (450 nm and 570 nm). Biotinylation of Antibodies was done using EZ-Link™ Sulfo-NHS-LC-Biotinylation kit (Thermo Fisher Scientific) according to manufacturer's instructions.
as §1

[5] = molecular target: T2, recombinant protein consisting of the …; assay: direct ELISA; highest dilution with S/B >= 2.1; remark: listed apart in the source
Experimental: as §2, §3

[6] = molecular target: T3, human TREM2 (hTREM2) on cells; assay: flow cytometry on BMDM
Experimental: TREM2 KO and hTREM2 BMDM were washed with MACS buffer (PBS pH 7.2, 0.5% BSA and 2 mM EDTA) and stained with biotin conjugated anti hTREM2 antibodies (10 μg/mL) followed by Washing with MACS buffer and APC-streptavidin (Biolegend, 405207) incubation, then analyzed by flow cytometer (LSRII, BD).

Row | Binder | sup ELISA positive/negative (293HEK) (soluble TREM2 protein) | direct ELISA positive/negative [1] | Titer [2] | OD at dilution 1000 [3] | OD at dilution 3000 [3] | OD at dilution 9000 [3] | OD at dilution 27000 [3] | OD at dilution 81000 [3] | OD at dilution 243000 [3] | OD at dilution 729000 [3] | OD at dilution 2187000 [3] | OD at dilution 6561000 [3] | OD at dilution 19683000 [3] | Cell based ELISA positive/negative [4] | Titer [5] | FACS positive/negative BMDM [6]
1 | 60H4A3 (antibody, V domains shown, Biotin conjugated in sup ELISA, cell-based ELISA and flow cytometry) VH: EVQLQESGPELVKPGASVKMSCKASGYTFTDYNMHWVKQSHGKSLEWIGYIYPNNGGTGYNQKFKGKATLTVNKSSSTAYMELRSLTSEDSAVYYCARSGRGFAYWGQGTLVTVSA VL: DIVMTQSPASLSVTPGDRVSLSCRASQSISDYLHWYQQKSHESPRLLIKYASQSISGIPSRFSGSGSGSDFTLSINSVEPEDVGVYYCQNGHSFPYTFGGGTKLEIK | 11 ratio | 31.5 ratio | 2.19e+06 dilution | 1.84 OD | 1.8 OD | 1.9 OD | 1.63 OD | 1.16 OD | 0.763 OD | 0.322 OD | 0.17 OD | 0.113 OD | 0.063 OD | 1.89 ratio | 2.19e+06 dilution | 1.78 ratio
2 | 61B11C9 (antibody, V domains shown, Biotin conjugated in sup ELISA, cell-based ELISA and flow cytometry) VH: QLQESGPEQVKPGASVKMSCRTSGYTFTAYNMHWVKQRLGKSLEWIGYIRPTNGDTRYNRRFRDKATLTVDKSSSTTYMELRSLTSEDSAVYYCTRSTTVASFDYWGQGTTLTVSS VL: DIVMTQTTSSLTVSVGQKITLNCKSSQSLLYTNNQKNFLAWYQQKPGQSPKLLIYWASTRDSGVPDRFTGSGSGTDFTLTITSVMAEDLAVYFCQQYYDFPPTFGGGTKLEIK | 3.05 ratio | 35.1 ratio | 2.19e+06 dilution | 2.75 OD | 2.76 OD | 2.88 OD | 2.58 OD | 1.92 OD | 0.985 OD | 0.405 OD | 0.169 OD | 0.099 OD | 0.066 OD | 2.46 ratio | 2.19e+06 dilution | 1.47 ratio
3 | 60H4G2 (antibody, V domains shown, Biotin conjugated in sup ELISA, cell-based ELISA and flow cytometry) VH: EVQLQESGPELVKPGASVKMSCKASGYTFTDYNMHWVKQSHGKSLEWIGYIYPNNGGTGYNQKFKGKATLTVNKSSSTAYMELRSLTSEDSAVYYCARSGRGFAYWGQGTLVTVSA VL: DIVMTQSTSSLTVTAGEKVTMSCKSSQSLLNSGNQKNYLTWYQQKPGQPPKLLIYWASSRESGVPDRFTGRGSGTDFTLTISSVQAEDLAVYYCQNDYSYPFTFGSGTKLEIK | 10 ratio | 27.4 ratio | 729000 dilution | 1.83 OD | 1.89 OD | 1.69 OD | 1.31 OD | 0.849 OD | 0.432 OD | 0.222 OD | 0.133 OD | 0.102 OD | 0.067 OD | 1.38 ratio | 729000 dilution | 1.16 ratio
